Data: the DeepSol protein solubility set

Experiment: soluble on expression in E. coli; label from the status in PepcDB or PDB records
For “MSLNITGIQSDWKVEKIEFAKLTGERARSAGANGRIGVHGKSCTVDIARITIDGQTGYGSSIHMTPEWAEDVIGRRLLDLFDDRGRLREAYRLQLEYPVLDWLGQRQGKPVYDLVSGAHLETGASLVVPCYDTSLYFDDLHLADERAAVALMQEEAMQGYAKGQRHFKIKVGRGGRHMPLWEGTKRDIAIVRGISEVAGPAGKIMIDANNAYNLNLTKEVLAALSDVNLYWLEEAFHEDEALYEDLKEWLGQRGQNVLIADGEGLASPHLIEWATRGRVDVLQYDIIWPGFTHWMELGEKLDAHGLRSAPHCYGNAYGIYASGHLSAAVRNFEFVEYDDITIEGMDVSGYRIENGEIHVPATPGFGIVFDDELVTYLINRSGWSEGHHHHHH”, the “soluble on expression in E. coli” value was “soluble”. With “MSLNKEQRRITAEELQAHFEESTLSVQMIAEKLNVTTEDVEKVLAMTAPLGIFSHQLQRFIHLVWDVRDVINDNIKGNGQTPEPYTYLKGEKEDYWFLR” the “soluble on expression in E. coli” value was “not soluble”. For “MSLNKKVVIGMSGGVDSSVAAYLLKEQGYDVIGVTMKLTPDDAFYTEQEGGCCSLSAVEDARRVAYRIGIPFYVVNFTDIFKEKVIDYFTEEYLNGKTPNPCIACNKYIKFDALLKKAESLGADYIATGHYCRIVEENGRYVIRKSEDEKKDQTYVMYNMTQDQLKHTLMPCGDYKKDRIREIAREIGLNVFDKKDSEEICFIPDNDHGGFIKRECPKAVKTGNFVDKEGKVLGKHKGIIYYTIGQRKGLGIATGKRVFVTNIDAMKNQVVIGEEEEIFENELISFKNNFIPFDKLTEPMEVDAKIRYNAKASKATIYPVDDENVKVKFEKPQRAITKGQSVVFYDGDLLVGGGIIKEGHHHHHH”, the “soluble on expression in E. coli” value was “not soluble”. In the case of “MSLNKLLSQLASVEILTPKIDDTLWFFKDILGLHEVGRKDRSVYLRGWEDWYAYSLKVTESDTAGVKEIVWRTYSEKDLIDSINIVNSNGLGLGWDEGEPDMGVGKGYKFILPSGQIGKLVWEMKIWRASGELRSGYKARPMKKPTKGVQAKDLSHIFIFAYNDESLAKTVELLKRLTFKVNEILKEGDKRIAYWMAVNGTAHDLAVSLDPSGVPARLNHVTFNVDYADDILKAADFYTDYGLEIVGGPLRHGITDSHSLYVKEPGGNVIELLHGGYLNVVPDWEPIVWDTKEDENRWLYYWGHVKEAFWHGEGHHHHHH”, the “soluble on expression in E. coli” value is reported as “not soluble”. For “MSLNLIFKKKSYSFKLSTKVENSKTTYLTKLGWIIKLTSNDKKIGFGEVSPLLEEDLKKCAKQLNMIPKNVEAFNLSEQINIFHPCIQSAINSALAEINGKIIFKENYTFDEIDKTAILLNSENVITELNEIKQRQSIIGKSVTIKWKVALRDNHEEEANLEEILSQIGNNIKLRIDANGSWSRKIANRWADILKDNKNIDWLEQPLCVEDIEGMKELNKKIPIALDESLLKFPTLIDEWKGWQIRRPSQENNPVKLLRELENKKALISISTSFETGIGKRWLYHLSSLQLQGPTPKVPGLGMNKFPNSFLFLNEAKKIWDQLEGHHHHHH”, the “soluble on expression in E. coli” value was “not soluble”. With “MSLNPRIDYLKSLSTLAAEIYPDIRGVKKLRYNARFCLWGILMPDTLARIQDLLNQPSFHPVRQHYPRTLEKPLKPYVCVKWPPQERAQRLIEHFAFLEKRHAQLLPLIYRHQGWSLFQHELFSIQLCHGPEREGSLALVLLSQDHQPLFTLAFNISGRNKPVIHIGALQGPGPNVENRQEIIRQLTHQLHGLRPKALIMEVLLILARYWCVEKVYGVTNEGHVYQALRYIGSKRSSVRFQYSELWQEMGGEAINPYWHSLPTHPPRKAPLSLSKTKRRLYTKRYAWLTELEQSIQANLQPWDNEIHHEGHHHHHH” the “soluble on expression in E. coli” value was “soluble”. For “MSLNQPLLSVNNLTHLYAPGKGFSDVSFDLWPGEVLGIVGESGSGKTTLLKSISARLTPQQGEIHYENRSLYAMSEADRRRLLRTEWGVVHQHPLDGLRRQVSAGGNIGERLMATGARHYGDIRATAQKWLEEVEIPANRIDDLPTTFSGGMQQRLQIARNLVTHPKLVFMDEPTGGLDVSVQARLLDLLRGLVVELNLAVVIVTHDLGVARLLADRLLVMKQGQVVESGLTDRVLDDPHHPYTQLLVSSVLEGHHHHHH”, the “soluble on expression in E. coli” value was “soluble”. With “MSLNREAQGSQEGVRIRKARAQDIPIVMEINLESLPENYWYGFYKYILDNWGEAFLVAEVGGEIVGYAMSRVEQTSDPVLLGMKDELEGDKSVIDKILDAIRNQLSEERPVGHLVSIAVRPGFRGRGIGSKLLSATVRVMKNVYRVDAIFLEVRVSNMPAIRLYEKFGFRKVRRIKGYYRDGEDAFVMVKRLLEGHHHHHH” the “soluble on expression in E. coli” value was “soluble”. For “MSLNRNAILSKRQKQFIERVAWGASYKEVADFFHVSWSTVDNTLRNAKTKLGLSKVTELGAWWFCTNYGISFDLSPIARQCTAGIILFLFSLGEVTTITDASYTMQIVRRTRTEYRIRRHETSIYQPYIINEGHHHHHH”, the “soluble on expression in E. coli” value was “not soluble”. In the case of “MSLNRPAPVEISYENMRFLITHNPTNATLNKFTEELKKYGVTTLVRVCDATYDKAPVEKEGIHVLDWPFDDGAPPPNQIVDDWLNLLKTKFREEPGCCVAVHCVAGLGRAPVLVALALIECGMKYEDAVQFIRQKRRGAFNSKQLLYLEKYRPKMRLRFRDTNGEGHHHHHH”, the “soluble on expression in E. coli” value is reported as “soluble”. In the case of “MSLNSSQIQSVNVELFNVPLDEVLNDAKHGDHTHFELILCTITCTDGTQGVGYTYTGGKGGRAIYSLLNDELKPFLMGKDASCINHLWEEMQYHLHYVGRGGLVSFAISAVDIALWDIHCKVLNQPLWKVAGGCSDRVNCYAGGIDLNFSTEKLLGNIQGYLDCGFEAVKIKVGKEDYREDVARVAAVRNLIGPDAIFMVDANYSLTVNKAIKFAQAIEQYDITWFEEPTIPDDFAGFAHIASKINIPLAMGENLHTIYEFNQAISQAKLGFLQPDASNIGGITGWLTVAQMGYANNLPICSHGMHELHVSLMASQPNAGYLEVHSFPIDRYTTHPLKLENGKAVAPSTPGVGVEFKTELLLPYLVKHSEGHHHHHH”, the “soluble on expression in E. coli” value is reported as “soluble”. For “MSLNTGGNLLCVQLTVRRGPVREAKKPTPRIRNDGRYKIMQIGDLHLSTGVGACREAVPDSYNGGKCEADPRTLDFVNRVLDDEKPDLVVLSGDQVNGDTAPDAPTAMFKIVSLLIERKIPYAAIFGNHDDEKTMSREAQMAIMESLPFSLSTAGPADIDGVGNYYVEVLARGKTDHSALTIYLMDTHAYTPDERNFPGYDWVKPNQIEWFKKTAAGLKKNHNEYTGRHMDIAFIHIPLTEYADPALPRVGEWKEGVTAPVYNSGFRDALVEQGIVMVSAGHDHCNDYCSLSLAGEGETKIPALWMCYAGGSGFGGYAGYGGYHRRVRLFEVDTNEARIKTWKRLESGDTASRIDLQIIVDGGKPQPIAPVSEGHHHHHH”, the “soluble on expression in E. coli” value was “not soluble”. In the case of “MSLNTSLLILLVASFSSLVLSQNDSKKGGLPKKVHFSFGPAYLRNLTKEEKQQYYAIFGNKDLTIKQQEDQRLAFAEKHGFGQAIKDDIKLKAGNHELIRKERPEIIKNLLAAHEATMKIFDNKDQTLSQREAAVNALKKKYPHAPSTLYYISRLITGNGKHQTPFIKHH”, the “soluble on expression in E. coli” value is reported as “not soluble”. For “MSLNVFDATLKRLEYIFEEFDKVYFSFSGGKDSGLMVQLANLVAEKLDRNFDLLILNIEANYTATVDFIKKIEQLPRVKNIYHFCLPFFEDNNTSFFQPQWKMWDPSEKEKWIHSLPKNAITLENIDDGLKKYYSLSNGNPDRFLRYFQNWYKEQYPQSAISCGVGIRAQESLHRHSAVTKGENKYKNRCWINITLEGNILFYPLFDWKVGDIWAATFKCELEYNYIYEKMYKIGYKYRDMREGHHHHHH”, the “soluble on expression in E. coli” value was “soluble”. With “MSLNYDWIKTRATFDEPKAAVIDPFKGTEWTYQDLNIRAENLANYLQEQGVQRGDVVGIFSPNDVALLDLLFASFKLGAVYLPINWRLKTQEIESVIADSDVKLIFYSAKHLSSLEGIADELIHMDIDSKTYDDIVDPTHHRPFTTVSVEGDDLASLMYTSGTTGLPKGVMFSYDSFVNNPINTALTYKVYASYTTIISTPMFHVLGFNDLTIPLLMAGGTLVLQRYFNGESLNDLMAQYQPNFLIQIPTMYYAMLVADNFDLKNFANIEFLIQGGAAPLPTVQKKFVSLGIPIITGYGLTEAPLVSVNTAANNERKPASIGQPVMFTDTRIFDDNFEEVQVGEIGELGVRGNNVTPGYWNKPEETAKAFSGEFFLTGDLAKIDEDGDVYIVDRRKEMIITGGENVLPSEVERVLSEHPLVAQGVVVGYDSPKYGESVSAAVVLTEDDPDFEQKLDAHMREHIAGYKIPRLYLKLTHIPLNSTSKPDKLEIQKYMNDKAQKQDQSKDEGHHHHHH” the “soluble on expression in E. coli” value was “not soluble”. For “MSLNYSDPVTFEILGVVANYGQEGCFMLAQLPPALQSLHLPLRLKLWDGNHFDLGPSPQVTILVKEPQLISQLTHPSMDQLGTAFVEGKLELEGDIGEAIRVCDELSEALLADEDETPPPRVSHDKTTDAKAISYHYDVSNAFYQLWLDQDMAYSCAYFREPDNTLDQAQQDKFDHLCRKLRLDAGDYLLDVGCGWGGLARFAAREYGAKVFGITLSKEQLKLGRKRVQAEGLADKVDLQILDYRDLPQDGRFDKVVSVGMFEHVGHANLALYCQKLFGAVREGGLVMNHGITAKHVDGRPVGRGAGEFIDRYVFPHGELPHLSMISASICEAGLEVVDVESLRLHYAKTLHHWSENLENQLHKAAALVPEKTLRIWRLYLAGCAYAFQKGWINLHQILAVKPYADGHHDLPWTREDLYREGHHHHHH”, the “soluble on expression in E. coli” value was “soluble”. In the case of “MSLPGSSNRPLPSSNDEFHYEDIELPSGYRSEGEVVDLLNPKDELEEPLFSEEPLFPVTTSIPTKTAVSKPKIAPTSAAKDVTFSSSIDSDDCSVAYDNSKPVRQYVLMIDAGSTGSRVHVYQFNNCNPSPKLEEEFFKMIEPGLSSFAGDPEGAAASLDPLLDYAMENVPEEYRRCSPIAVKATAGLRLTGESEAKAILKSVRQHLENDYPFPIVKDGVSILEGSMEGIYAWITINYLLGTLGGKATHSTVAVMDLGGASTQLVFEPRFASDGESLVDGDHKYVLDYNGEQYELYQHSHLGYGLKEARKLIHKFVLNNAEALKESLELLGDSTSIIHPCLHLNASLTHPDSKSEASEVVFVGPSLAHLSLQCRGIAEKALYKDKNCPVRPCSFNGVHQPKFTETFTDSPIYLISYFYDRMISLGMPSTFTIEDMKYLANSVCSGPTYWQDAFSLTDALKELKEEPEWCLDLNYMISLLSVGYEIPNNRQLHTAKKIDNKELGWCLGASLSMLSEQNNGWNCNVKEEIEGHHHHHH”, the “soluble on expression in E. coli” value is reported as “not soluble”. In the case of “MSLPIDTWFPLAVSRNLLTPDPALHERMVAQIFQWRGDLWANPSGESAWTGDMNGVALVHEHPDFAWLRSQVEVEALQFCQALGFQTEALQLWIQRSWPVVSEPGQSIGAHHHPNAHLSAIYYLNGSGDPELGALRIFDDRPRNELVPGLAVGYGEVIAEEAALNQAWIDYPPQAGLLLMFPASTRHGVTENLTDLTRLSVSFDLYLTARSATELAPEYLAPPVNRWSPIQLREGHHHHHH”, the “soluble on expression in E. coli” value is reported as “soluble”. For “MSLPKPQLRIIAGDFEDPRIIALLAHHFATMRSTGPEESCHVMPLGTMRQADLDFFAAWDGDALAGFGAVKQLGDGHGEIKSMHTAAAYRGRGVGQAVLDHLSTHARALGLQRLSLETGAGDFFVPARAMYARNGFQTCDPFGDYKPDPNSVFMTRMLEGHHHHHH”, the “soluble on expression in E. coli” value was “not soluble”. In the case of “MSLPLIIPENIPAYELLKEHAFIMGLRRAKHQDIRPQEILIVNLMPKKIETENQILSLLANSPLQVNITLLATTSYVGKNTPFTHLEKFYKGLEEVKKHKFDGAIVTGAPVEQMDFEKVAYWEELLEIFDFLKQNVTSSMYICWGAMAALKYFYGVDKISLDKKIFGVYKHDKVSPDLLLTNLDEKVLMPHSRHSSMDEEQILALQKQGKLKILLRNKKIGSALLRDEKNIFILGHLEYFKETLHQEYVRDNFIQKAKNYYDKKGNIKYNWRSNANTIFANWLNYDVYQSTPFVLEGHHHHHH”, the “soluble on expression in E. coli” value is reported as “soluble”.
